Target: GST-DLG1 fusion protein (PDZ domains 1-2) (human) (UniProt Q12959)
Experiment: variant of the G assay, 100 uM 8-mer against 20 uM biotin-labeled AA2L

## eight amino acid CLASP-2 peptide MTSSSSVV (unlabeled)
  percent inhibition at 100 uM: > 50%
